Patent US20250064958A1 (Eli Lilly, published 2025)

Experiments:
human TfR ECD = biological target: T1, human TfR ECD (human, UniProt P02786 89-760); assay: SPR, Biacore 8K, 37 C, TfR ECD immobilized on CM4 chip, TBP as analyte, 2-state binding model, n = 3
T1 construct: extracellular domain; also called human Transferrin Receptor 1 extracellular domain
Method: (§1) Target human and Cynomolgous TfR ECDs were immobilized on a CM4 chip (Cytiva P/N 29104989) using standard NHS-EDC amine coupling. The TfR binding proteins were prepared at a final concentration of 0.3, 0.1, 0.033, 0.01, 0.0033, 0.001, 0.00033, 0.0001 μM respectively by dilution of stock solution into running buffer.
(§2) Binding analysis was performed in a multi-cycle kinetics manner. Each analysis cycle consists of (1) injection of the lowest to highest concentration proteins over all Fc at 50 μL/min for 140 seconds followed by return to buffer flow for 400 seconds to monitor dissociation phase; (2) regeneration of chip surfaces with injection of 3M magnesium chloride, for 30 seconds at 100 μL/min over all cells; and (3) equilibration of chip surfaces with a 50 μL (30-sec) injection of HBS-EP+. Data were processed using standard double-referencing and fit to a 2-state binding model using Biacore 8K Evaluation software, to determine the association rate (kₒₙ, M⁻¹s⁻¹ units), dissociation rate (koff, s⁻¹ units), and Rₘₐₓ (RU units). The equilibrium dissociation constant (KD) is calculated from the relationship KD=koff/kₒₙ, and is in molar units.

Cynomolgous TfR ECD = biological target: T2, Cynomolgous TfR ECD (Cynomolgus); assay: as above
T2 chain: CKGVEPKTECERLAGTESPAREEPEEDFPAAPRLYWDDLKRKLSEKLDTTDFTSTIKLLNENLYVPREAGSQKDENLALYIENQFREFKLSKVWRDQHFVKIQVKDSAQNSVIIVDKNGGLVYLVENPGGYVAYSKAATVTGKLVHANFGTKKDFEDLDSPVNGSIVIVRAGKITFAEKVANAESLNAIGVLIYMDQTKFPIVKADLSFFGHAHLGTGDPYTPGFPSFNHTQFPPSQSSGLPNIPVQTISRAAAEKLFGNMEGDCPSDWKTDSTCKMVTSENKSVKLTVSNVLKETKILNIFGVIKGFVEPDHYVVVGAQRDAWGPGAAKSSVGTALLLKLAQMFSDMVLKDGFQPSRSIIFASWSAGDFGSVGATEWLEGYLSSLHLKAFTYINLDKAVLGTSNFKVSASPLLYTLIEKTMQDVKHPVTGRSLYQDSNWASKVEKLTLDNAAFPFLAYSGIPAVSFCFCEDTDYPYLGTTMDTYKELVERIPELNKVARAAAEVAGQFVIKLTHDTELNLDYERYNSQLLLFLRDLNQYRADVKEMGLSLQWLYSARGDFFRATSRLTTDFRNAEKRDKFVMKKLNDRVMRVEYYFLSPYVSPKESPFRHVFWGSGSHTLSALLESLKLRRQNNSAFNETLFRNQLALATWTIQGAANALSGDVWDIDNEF
Method: as §1, §2

B1: TBP4 (One Arm Heteromab 1, A378C) (antibody, human IgG4 S228P, kappa, F234A L235A)
heavy: EVQLVESGGGLVKPGGSLRLSCVASGFTFSSYSMNWVRQAPGKGLEWVSSISSSSSYIYYADSVKGRFTISRDNAKNSLYLQMNSLRAEDTAVYYCARRHGYSNSDAFDNWGQGTLVTVSSASTKGPSVFPLAPCSRSTSESTAALGCLVKDYFPEPVTVSWNSGALTSGVHTFPAVLQSSGLYSLSSVVTVPSSSLGTKTYTCNVDHKPSNTKVDKRVESKYGPPCPPCPAPEAAGGPSVFLFPPKPKDTLMISRTPEVTCVVVDVSQEDPEVQFNWYVDGVEVHNAKTKPREEQFNSTYRVVSVLTVLHQDWLNGKEYKCKVSNKGLPSSIEKTISKAKGQPREPQVSTLPPSQEEMTKNQVSLMCLVYGFYPSDICVEWESNGQPENNYKTTPPVLDSDGSFFLYSVLTVDKSRWQEGNVFSCSVMHEALHNHYTQKSLSLSLG
light: DIQMTQSPSAMSASVGDRVTITCRASQGISHYLVWFQQKPGKVPKRLIYAASSLQSGVPSRFSGSGSGTEFTLTISSLQPEDFATYYCLQHNSYPWTFGQGTKVEIKRTVAAPSVFIFPPSDEQLKSGTASVVCLLNNFYPREAKVQWKVDNALQSGNSQESVTEQDSKDSTYSLSSTLTLSKADYEKHKVYACEVTHQGLSSPVTKSFNRGEC
chain: ESKYGPPCPPCPAPEAAGGPSVFLFPPKPKDTLMISRTPEVTCVVVDVSQEDPEVQFNWYVDGVEVHNAKTKPREEQFNSTYRVVSVLTVLHQDWLNGKEYKCKVSNKGLPSSIEKTISKAKGQPREPQVYTLPPSQGDMTKNQVQLTCLVKGFYPSDICVEWESNGQPENNYKTTPPVLDSDGSFFLASRLTVDKSRWQEGNVFSCSVMHEALHNHYTQKSLSLSLG
notes: One-arm heteromab, IgG4 PAA, monovalent for human TfR; also called OAH1
Work on B1 yielded a Kd (human TfR ECD) of 154 nM and a Kd (Cynomolgous TfR ECD) of 300 nM.
